Paper PMC7846277

Target: microtubules grown from purified bovine brain tubulin (bovine) (UniProt Q6B856)
Experiment: laser trap (optical trap) rupture force assay; kinetochore particles on anti-His5 beads (7.5 nM Dsn1-His-Flag), placed at the ends of microtubules growing from coverslip-anchored seeds; BRB80 growth buffer with 1 mM GTP, 1.5 mg/mL tubulin; force ramp 0.25 pN/s; 23°C

UniProt Q6B856, sequence (Q6B856 whole entry, looked up): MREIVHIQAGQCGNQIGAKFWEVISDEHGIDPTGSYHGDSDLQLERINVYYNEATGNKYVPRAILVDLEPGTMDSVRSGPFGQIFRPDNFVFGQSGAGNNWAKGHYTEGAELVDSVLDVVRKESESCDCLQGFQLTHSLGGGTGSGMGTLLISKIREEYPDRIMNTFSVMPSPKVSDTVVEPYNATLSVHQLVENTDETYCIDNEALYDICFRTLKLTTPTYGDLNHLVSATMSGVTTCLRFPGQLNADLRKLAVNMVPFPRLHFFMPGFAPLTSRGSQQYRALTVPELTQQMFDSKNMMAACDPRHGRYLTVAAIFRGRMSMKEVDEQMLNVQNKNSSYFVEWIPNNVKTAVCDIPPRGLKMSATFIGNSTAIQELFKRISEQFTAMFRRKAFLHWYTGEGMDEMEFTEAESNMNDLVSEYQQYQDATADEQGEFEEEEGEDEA

| mean rupture force [pN] | Substance |
| --- | --- |
| 9 | Wild-type kinetochore particles from mitotic metaphase cells (from UniProt P40568 1-576) (complex) |
| 12 | Wild-type meiotic metaphase I kinetochore particles (from UniProt P40568 1-576) (complex) |
